Measured values taken from patent US20190309044A1, “POLYPEPTIDES AND USES THEREOF AS A DRUG FOR TREATMENT OF AUTOIMMUNE DISORDERS” (Compugen Ltd., priority 2017, published 2019).

Tested on: healthy human skin transplanted onto beige-SCID mice
Experiment: Humanized psoriasis model, human skin xenografts on beige-SCID mice
Type: in vivo, mouse
Details: IHC; vs PBS
Description: In this model, psoriasis is induced in xenotransplants of healthy human skin transplanted onto beige severe combined immunodeficiency (SCID) mice followed by intradermal (i.d.) injection of IL-2 enriched Peripheral Blood Mononuclear Cells (PBMCs) isolated from blood of psoriasis patients (Nickoloff, 1995; Wrone-Smith, 1996 Gilhar et al., 2002, 2006, 2011). The activity of these compounds was compared to that of Enbrel, a TNF inhibitor which is an approved biological drug for treatment of psoriasis. As a control for model robustness, we used dexamethasone, a steroid with suppressive effects on inflammatory cytokines and chemokines such as TNF-alpha and interferon-gamma which cause severe psoriasis. All treatments were administered intradermally, except for dexamethasone which was given topically.
2.2. Study Protocol A) Healthy human skin pieces with a width of 0.4 mm and surface area of 1.5×1.5 cm were provided from residual skin of routine plastic surgery procedures from the Plastic Surgery Department of the Rambam Medical Center, Israel. In addition, 20 mL blood samples were taken from psoriatic patients. B) Seventy (70) beige-severe combined immunodeficient mice (SCID) (weight ˜20-25 g) were included in this study. Normal healthy human donor skin was transplanted onto the beige-SCID mice as previously described (Nickoloff et al., 1995; Wrone-Smith, 1996; Gilhar et al., 2002, 2006, 2011; Kalish et al., 2009) and the mice were divided into 7 groups. C) Peripheral Blood Mononuclear Cells (PBMCs) isolated from psoriatic patients' blood were cultured in the presence of IL-2 [Prospec, 100 U/mL of RPMI 1640 media, 10% human AB serum (Sigma, St. Louis, Mo.), 1% glutamine, 1% antibiotics (media components; Biological Industries, Kibbutz Beit Haemeck, Israel)] for 14 days, as previously described (Gilhar et al, 2002). D) Four weeks following engraftment, each mouse was injected intra-dermally (i.d.) into the grafted skin lesion, with 1×10^7 activated allogeneic enriched PBMCs from psoriatic patients (FIG. 20). Cells from different psoriasis patients were equally distributed between treatment groups so that each patient is represented in each treatment group. E) On the day of PBMCs injection into the skin grafts, mice were divided randomly into treatment groups (n=9-10 mice per group) and administration of all drugs started (FIG. 20). All tested compounds including the vehicle were given intradermally (intralesional), three times a week, except for dexamethasone which was given topically for 14 consecutive days (Table 3).
F) Twenty eight days after starting the injections and treatment, skin was harvested (FIG. 20). Grafts were analyzed for the following psoriatic parameters by histology: epidermal thickening (acanthosis), suprapapillary epidermal thinning (papillomatosis), hyperkeratosis, parakeratosis, orthokeratosis, agranulosis-hypogranulosis, appearance of neutrophils in the upper spinous layer or in the corneal cell layer—Munro microabscess, regular elongation of rete ridges, angiogenesis, edema and dilated tortuous blood vessels in the dermal papilla and mononuclear cell infiltrate in the papillary dermis. Epidermal thickness was measured as detailed below, and HLA-DR, ICAM-1, Ki-67 and immune infiltrates (anti-CD3 stain) were evaluated by immunohistochemistry (IHC).
The entire skin graft was excised and placed in 10% formal saline overnight. Then, the specimens were place in 70% ethanol and were embedded according to the standard H&E protocol. Histological assessment of the skin grafts was performed by light microscopy and evaluated by two blinded observers [the second observer evaluated random slides (about 25% of all slides) to compare the data obtained by the first observer. […] Epidermal thickness was determined with an ocular micrometer at a minimum of 50 points along the epidermis selected to represent points of maximal and minimal thickness.
Representative grafts were allocated for IHC analysis. […]

B1: C1ORF32 ECD-Fc (SEQ ID NO:42): human-mouse fusion protein: human C1ORF32 ECD fused to mouse immunoglobulin Fc (SEQ ID NO:42) (protein)
chain: LQVTVPDKKKVAMLFQPTVLRCHFSTSSHQPAVVQWKFKSYCQDRMGESLGMSSTRAQSLSKRNLEWDPYLDCLDSRRTVRVVASKQGSTVTLGDFYRGREITIVHDADLQIGKLMWGDSGLYYCIITTPDDLEGKNEDSVELLVLGRTGLLADLLPSFAVEIMGSENLYFQGSGEPRGPTIKPCPPCKCPAPNLLGGPSVFIFPPKIKDVLMISLSPIVTCVVVDVSEDDPDVQISWFVNNVEVHTAQTQTHREDYNSTLRVVSALPIQHQDWMSGKEFKCKVNNKDLPAPIERTISKPKGSVRAPQVYVLPPPEEEMTKKQVTLTCMVTDFMPEDIYVEWTNNGKTELNYKNTEPVLDSDGSYFMYSKLRVEKKNWVERNSYSCSVVHEGLHNHHTTKSFSRTPGK
modifications: Fusion protein human C1ORF32-ECD fused to mouse IgG2a Fc
infiltration of T cells (CD3 positive cells): significant reduction
